Target: Shp2 (UniProt Q06124)
Assay: GST pull-down from lysate, LC-MS/MS
Conditions: reference: wild-type GST-PD-1ICD; sites Y223,Y248

## PD-1 ICD, 194-288 (from UniProt Q15116) PD-1ICD-FF (Y223F, Y248F)
  binding against the reference: weaker
